The values that follow come from PMC2871789, “Characterization of the Interaction and Cross-Regulation of Three Mycobacterium tuberculosis RelBE Modules” (PLoS ONE, 2010).

For assay [1], the target named is T1, 6xHis-RelF (Rv2865), purified (M. tuberculosis, UniProt O33347 1-93).
T1 construct: also called his-tagged RelF; pET-2865; not shown: His6, N-terminal, kept
T1 sequence: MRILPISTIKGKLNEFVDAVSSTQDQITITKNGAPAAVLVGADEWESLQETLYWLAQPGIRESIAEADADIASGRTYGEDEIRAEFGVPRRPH
The assay can be described thus: pull-down. Particulars: both partners purified.

The target in assay [2] is T2, GST-RelE (Rv1246c), purified (M. tuberculosis, UniProt O50461 1-97).
T2 construct: the methods state the opposite tagging; also called GST-tagged RelE; pGEX-1246c
T2 sequence: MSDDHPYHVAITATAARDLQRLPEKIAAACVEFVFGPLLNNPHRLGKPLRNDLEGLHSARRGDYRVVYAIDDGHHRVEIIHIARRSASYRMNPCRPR
Kind of assay: pull-down. Particulars: both partners purified.

B1: GST-RelG (Rv2866), purified (natural protein)
chain: MPYTVRFTTTARRDLHKLPPRILAAVVEFAFGDLSREPLRVGKPLRRELAGTFSARRGTYRLLYRIDDEHTTVVILRVDHRADIYRR
notes: also called GST-tagged RelG; pGEX-2866
Consider B1, for which the binding result in assay [1] is reported as “binds”.

B2: 6xHis-RelB (Rv1247c), purified (natural protein)
chain: MAVVPLGEVRNRLSEYVAEVELTHERITITRHGHPAAVLISADDLASIEETLEVLRTPGASEAIREGLADVAAGRFVSNDEIRNRYTAR
notes: also called his-tagged RelB; histidine-tagged RelB; not shown: His6, N-terminal, kept
Regarding B2, the binding result in assay [2] is reported as “binds”.
